Consider one variant from IntAct's records for PubMed 15774581.

Sequences and labels used below:
B1: Krueppel-like factor 11 (Homo sapiens), O14901 (parent)
chain: MHTPDFAGPDDARAVDIMDICESILERKRHDSERSTCSILEQTDMEAVEALVCMSSWGQRSQKGDLLRIRPLTPVSDSGDVTTTVHMDAATPELPKDFHSLSTLCITPPQSPDLVEPSTRTPVSPQVTDSKACTATDVLQSSAVVARALSGGAERGLLGLEPVPSSPCRAKGTSVIRHTGESPAACFPTIQTPDCRLSDSREGEEQLLGHFETLQDTHLTDSLLSTNLVSCQPCLHKSGGLLLTDKGQQAGWPGAVQTCSPKNYENDLPRKTTPLISVSVPAPPVLCQMIPVTGQSSMLPAFLKPPPQLSVGTVRPILAQAAPAPQPVFVGPAVPQGAVMLVLPQGALPPPAPCAANVMAAGNTKLLPLAPAPVFITSSQNCVPQVDFSRRRNYVCSFPGCRKTYFKSSHLKAHLRTHTGEKPFNCSWDGCDKKFARSDELSRHRRTHTGEKKFVCPVCDRRFMRSDHLTKHARRHMTTKKIPGWQAEVGKLNRIASAESPGSPLVSMPASA
partner: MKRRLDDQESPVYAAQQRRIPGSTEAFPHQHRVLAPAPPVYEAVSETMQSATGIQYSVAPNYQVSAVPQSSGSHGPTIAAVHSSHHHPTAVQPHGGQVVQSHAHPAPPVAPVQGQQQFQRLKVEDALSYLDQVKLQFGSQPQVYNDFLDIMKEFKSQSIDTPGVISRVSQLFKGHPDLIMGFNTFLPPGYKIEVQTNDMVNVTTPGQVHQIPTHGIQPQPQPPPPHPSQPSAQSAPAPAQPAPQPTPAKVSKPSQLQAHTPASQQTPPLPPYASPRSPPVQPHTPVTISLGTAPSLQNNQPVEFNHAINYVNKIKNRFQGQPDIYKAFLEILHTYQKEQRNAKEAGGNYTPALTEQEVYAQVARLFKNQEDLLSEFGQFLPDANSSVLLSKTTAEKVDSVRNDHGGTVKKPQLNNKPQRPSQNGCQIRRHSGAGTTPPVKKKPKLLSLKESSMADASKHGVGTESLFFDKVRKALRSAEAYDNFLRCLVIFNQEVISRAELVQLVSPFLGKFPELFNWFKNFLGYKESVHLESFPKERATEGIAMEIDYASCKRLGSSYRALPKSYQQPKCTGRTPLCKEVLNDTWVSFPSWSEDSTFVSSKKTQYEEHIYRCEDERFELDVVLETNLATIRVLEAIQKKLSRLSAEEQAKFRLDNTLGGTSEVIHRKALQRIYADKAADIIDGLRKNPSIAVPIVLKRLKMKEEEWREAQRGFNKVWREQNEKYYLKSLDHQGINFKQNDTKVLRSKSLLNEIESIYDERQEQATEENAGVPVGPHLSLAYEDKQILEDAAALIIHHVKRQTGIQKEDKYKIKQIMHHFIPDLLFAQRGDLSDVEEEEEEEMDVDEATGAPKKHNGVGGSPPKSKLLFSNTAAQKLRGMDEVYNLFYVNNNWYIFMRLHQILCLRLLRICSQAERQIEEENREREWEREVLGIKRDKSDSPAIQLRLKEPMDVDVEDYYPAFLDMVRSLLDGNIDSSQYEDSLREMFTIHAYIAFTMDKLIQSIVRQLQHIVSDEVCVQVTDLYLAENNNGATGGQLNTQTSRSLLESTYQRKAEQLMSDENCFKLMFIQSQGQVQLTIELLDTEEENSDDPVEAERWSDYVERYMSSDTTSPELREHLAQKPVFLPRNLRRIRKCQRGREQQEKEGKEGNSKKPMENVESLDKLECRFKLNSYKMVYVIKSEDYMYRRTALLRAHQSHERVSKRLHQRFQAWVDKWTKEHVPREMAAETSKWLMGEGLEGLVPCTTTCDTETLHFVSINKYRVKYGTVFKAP

The test covers variants of B1. The conditions noted are these: with Sin3a.
As for Q62R, the “effect of a mutation on the interaction” value is recorded as “increasing interaction”.
